Measurements taken from US20170158755A1 (PROTHENA BIOSCIENCES, published 2017).
Residue numbers refer to the chain shown, from its start. One block for each binder: values may come before it.

Assays:
[1] = target: T1, mouse LAMA4 in mouse tissue (mouse, UniProt P97927 25-1816); assay: staining of WT versus LAMA4.KO mouse brain cryosections, anti-human-594 secondary
T1 construct: Native protein in tissue sections, there part of laminin trimers; also called LAMA4-positive mouse tissue; LAMA4-positive mouse brain vasculature
T1 sequence (P97927 25-1816 limits assumed): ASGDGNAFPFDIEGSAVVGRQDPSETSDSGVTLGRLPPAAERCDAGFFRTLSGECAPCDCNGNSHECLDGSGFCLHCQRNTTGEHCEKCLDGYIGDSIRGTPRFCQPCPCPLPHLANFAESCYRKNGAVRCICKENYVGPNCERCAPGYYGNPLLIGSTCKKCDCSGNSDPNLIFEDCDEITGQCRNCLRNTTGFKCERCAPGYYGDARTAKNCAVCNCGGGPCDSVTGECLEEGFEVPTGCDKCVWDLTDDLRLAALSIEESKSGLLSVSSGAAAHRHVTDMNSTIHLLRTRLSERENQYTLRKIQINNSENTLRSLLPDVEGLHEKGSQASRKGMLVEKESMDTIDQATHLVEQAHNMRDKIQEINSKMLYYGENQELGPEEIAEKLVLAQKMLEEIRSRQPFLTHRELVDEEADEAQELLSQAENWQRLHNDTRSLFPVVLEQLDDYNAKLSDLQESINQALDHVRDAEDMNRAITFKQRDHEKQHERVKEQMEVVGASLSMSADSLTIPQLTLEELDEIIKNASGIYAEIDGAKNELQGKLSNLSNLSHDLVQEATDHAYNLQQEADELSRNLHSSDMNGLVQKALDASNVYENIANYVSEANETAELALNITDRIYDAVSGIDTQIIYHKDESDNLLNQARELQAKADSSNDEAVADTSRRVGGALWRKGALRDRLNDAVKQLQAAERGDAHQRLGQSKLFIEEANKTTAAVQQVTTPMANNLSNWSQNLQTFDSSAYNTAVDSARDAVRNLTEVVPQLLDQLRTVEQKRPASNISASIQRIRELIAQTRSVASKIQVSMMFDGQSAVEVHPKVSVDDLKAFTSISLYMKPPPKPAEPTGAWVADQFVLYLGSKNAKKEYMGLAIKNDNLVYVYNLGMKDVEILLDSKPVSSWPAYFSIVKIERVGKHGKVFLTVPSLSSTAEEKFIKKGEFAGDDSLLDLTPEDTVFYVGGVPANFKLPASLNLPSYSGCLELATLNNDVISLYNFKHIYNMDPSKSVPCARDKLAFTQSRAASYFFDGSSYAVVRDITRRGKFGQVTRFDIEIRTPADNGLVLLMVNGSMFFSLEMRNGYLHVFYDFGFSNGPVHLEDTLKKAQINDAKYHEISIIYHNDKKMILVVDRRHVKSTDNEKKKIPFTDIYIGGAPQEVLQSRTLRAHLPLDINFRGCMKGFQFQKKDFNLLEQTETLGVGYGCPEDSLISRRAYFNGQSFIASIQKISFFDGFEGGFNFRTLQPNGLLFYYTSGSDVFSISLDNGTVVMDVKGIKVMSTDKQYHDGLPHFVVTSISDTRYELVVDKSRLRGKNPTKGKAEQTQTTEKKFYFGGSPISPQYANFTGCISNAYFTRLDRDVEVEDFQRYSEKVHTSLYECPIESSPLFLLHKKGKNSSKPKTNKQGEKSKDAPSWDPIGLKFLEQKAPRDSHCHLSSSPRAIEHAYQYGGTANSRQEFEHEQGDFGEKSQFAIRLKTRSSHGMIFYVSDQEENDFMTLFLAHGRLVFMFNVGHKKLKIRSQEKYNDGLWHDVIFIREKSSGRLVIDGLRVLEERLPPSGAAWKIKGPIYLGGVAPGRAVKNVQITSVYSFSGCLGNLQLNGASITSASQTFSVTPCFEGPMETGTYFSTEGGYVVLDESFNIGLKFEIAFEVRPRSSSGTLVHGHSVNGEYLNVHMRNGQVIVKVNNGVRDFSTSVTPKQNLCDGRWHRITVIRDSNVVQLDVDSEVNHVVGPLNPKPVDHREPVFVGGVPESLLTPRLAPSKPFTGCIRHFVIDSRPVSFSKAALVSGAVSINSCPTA
Description: The specific binding between the 19C12 humanized variants (19C12 chi, H2L3, H2L4, H2L6, H3L6 and isotype control) and LAMA4 was further tested by assessing the variants' ability to stain wild-type vs. LAMA4.KO mouse brains. Humanized monoclonal antibodies against LAMA4 were generated as described in the Materials and Methods. Perfused and fresh frozen WT and LAMA4.KO mouse brains were cryosectioned, acetone-fixed, and stained with LAMA4 primary antibody followed by anti-human-594 secondary antibodies.

[2] = target: T2, human LAMA4 G domain (LG1-5) displayed on 293 cells (human, UniProt Q16363 830-1821); assay: flow cytometry on LAMA4-displaying 293 cells, anti-human-650 secondary antibody; MFI
T2 construct: the vector's tags and membrane anchor are not written here; also called LAMA4-displaying human 293 cells; full length
T2 sequence: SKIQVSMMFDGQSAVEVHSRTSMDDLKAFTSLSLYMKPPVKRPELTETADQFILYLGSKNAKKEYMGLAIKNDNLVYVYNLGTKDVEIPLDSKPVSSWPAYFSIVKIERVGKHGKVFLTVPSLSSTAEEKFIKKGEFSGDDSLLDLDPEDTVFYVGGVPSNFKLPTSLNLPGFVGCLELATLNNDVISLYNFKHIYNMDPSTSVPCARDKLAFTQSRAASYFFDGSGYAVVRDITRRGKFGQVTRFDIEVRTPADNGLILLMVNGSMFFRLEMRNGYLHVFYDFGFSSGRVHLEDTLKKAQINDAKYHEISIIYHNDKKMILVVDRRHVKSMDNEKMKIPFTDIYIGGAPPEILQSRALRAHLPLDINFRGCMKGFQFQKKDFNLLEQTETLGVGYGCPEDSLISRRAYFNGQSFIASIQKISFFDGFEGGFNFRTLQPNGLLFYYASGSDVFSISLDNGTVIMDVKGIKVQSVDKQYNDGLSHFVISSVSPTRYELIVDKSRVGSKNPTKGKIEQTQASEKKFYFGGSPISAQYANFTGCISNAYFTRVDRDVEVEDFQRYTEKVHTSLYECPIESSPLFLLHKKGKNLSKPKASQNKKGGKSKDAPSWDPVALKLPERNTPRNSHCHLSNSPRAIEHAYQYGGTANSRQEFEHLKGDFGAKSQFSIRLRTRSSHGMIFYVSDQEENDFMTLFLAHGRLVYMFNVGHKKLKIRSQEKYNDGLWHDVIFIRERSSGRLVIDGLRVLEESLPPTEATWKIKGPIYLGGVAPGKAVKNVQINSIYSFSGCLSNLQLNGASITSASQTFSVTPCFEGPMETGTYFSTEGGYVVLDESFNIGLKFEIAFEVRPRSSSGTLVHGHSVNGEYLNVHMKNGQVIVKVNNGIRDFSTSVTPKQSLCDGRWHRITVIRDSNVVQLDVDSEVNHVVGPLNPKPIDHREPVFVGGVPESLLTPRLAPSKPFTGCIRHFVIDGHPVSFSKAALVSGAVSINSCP
Procedure: (§1) The 19C12 variants chimeric 19C12, H2L3, H2L4, H2L6, H3L6, and isotype control were tested for their ability to block the binding of LAMA4 to its ligand MCAM (FIG. 15) and to bind LAMA4-displaying cells (FIG. 16). To test LAMA4 binding capacity, serially diluted antibodies were pre-incubated with LAMA4-displaying human 293 cells, followed by anti-human-650 secondary antibody incubation. […] Fluorescent signal was assessed via flow cytometric analyses and plotted as mean fluorescence intensity (MFI). All 19C12 variants retained their MCAM blocking and LAMA4 binding activity when compared with chimeric 19C12.

recombinant laminin 411 = target: T3, recombinant laminin 411 (human, UniProt P07942 22-1786; P11047 34-1609, limits assumed); assay: flow cytometric blocking assay; antibody pre-incubated with 650-labeled laminin 411; blocked partner: human MCAM on CHO cells; MFI
T3 construct: also called LAMA4 in complex with its gamma1 and beta1 chains
Procedure: as §1
Following two washes with FACS buffer (1% FBS in PBS), cells were resuspended with 650-conjugated anti-pan-laminin antibody (1:1000; Novus Biologicals) and incubated for 20 min at 4° C., and washed again. Cells were analyzed for pan-laminin reactivity by flow cytometry using standard procedures.

human His-laminin-α4 = target: T4, human His-laminin-α4 (human, UniProt Q16363 833-1823, limits assumed); assay: Biacore SPR
T4 construct: Bought His-tagged recombinant protein (R & D Systems); also called Human LAMA4; human His-laminin-α4 (R & D Systems)
T4 sequence: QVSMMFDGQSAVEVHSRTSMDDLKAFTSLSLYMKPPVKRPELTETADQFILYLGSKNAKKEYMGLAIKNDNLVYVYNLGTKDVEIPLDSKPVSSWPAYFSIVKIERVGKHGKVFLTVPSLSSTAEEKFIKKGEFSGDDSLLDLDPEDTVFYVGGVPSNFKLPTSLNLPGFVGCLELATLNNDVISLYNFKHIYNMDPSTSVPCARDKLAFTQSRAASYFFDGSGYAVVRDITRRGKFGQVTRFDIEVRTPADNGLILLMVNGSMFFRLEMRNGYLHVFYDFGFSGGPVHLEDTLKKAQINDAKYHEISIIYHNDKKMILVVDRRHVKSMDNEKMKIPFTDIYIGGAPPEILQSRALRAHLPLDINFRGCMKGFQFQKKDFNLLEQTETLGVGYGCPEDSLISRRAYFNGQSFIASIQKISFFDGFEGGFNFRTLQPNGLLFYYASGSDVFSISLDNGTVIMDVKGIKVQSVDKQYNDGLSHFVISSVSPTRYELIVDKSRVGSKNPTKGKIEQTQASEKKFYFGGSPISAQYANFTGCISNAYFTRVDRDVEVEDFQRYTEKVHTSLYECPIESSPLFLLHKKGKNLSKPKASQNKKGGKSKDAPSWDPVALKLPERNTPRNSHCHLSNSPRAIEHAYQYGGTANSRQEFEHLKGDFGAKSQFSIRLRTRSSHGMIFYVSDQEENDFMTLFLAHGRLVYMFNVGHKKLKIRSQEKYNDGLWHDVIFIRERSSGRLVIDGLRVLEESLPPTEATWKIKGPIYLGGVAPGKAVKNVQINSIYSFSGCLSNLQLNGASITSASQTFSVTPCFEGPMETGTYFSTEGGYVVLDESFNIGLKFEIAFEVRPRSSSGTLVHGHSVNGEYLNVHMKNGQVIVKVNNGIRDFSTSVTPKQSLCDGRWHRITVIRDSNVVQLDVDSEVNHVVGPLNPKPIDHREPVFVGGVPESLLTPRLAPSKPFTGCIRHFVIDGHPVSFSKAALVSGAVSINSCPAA

mouse His-laminin-α4 = target: T5, mouse His-laminin-α4 (mouse, UniProt P97927 826-1816, limits assumed); assay: Biacore SPR
T5 construct: Bought His-tagged recombinant protein; also called Murine LAMA4; recombinant mouse LAMA4-His
T5 sequence (looked up): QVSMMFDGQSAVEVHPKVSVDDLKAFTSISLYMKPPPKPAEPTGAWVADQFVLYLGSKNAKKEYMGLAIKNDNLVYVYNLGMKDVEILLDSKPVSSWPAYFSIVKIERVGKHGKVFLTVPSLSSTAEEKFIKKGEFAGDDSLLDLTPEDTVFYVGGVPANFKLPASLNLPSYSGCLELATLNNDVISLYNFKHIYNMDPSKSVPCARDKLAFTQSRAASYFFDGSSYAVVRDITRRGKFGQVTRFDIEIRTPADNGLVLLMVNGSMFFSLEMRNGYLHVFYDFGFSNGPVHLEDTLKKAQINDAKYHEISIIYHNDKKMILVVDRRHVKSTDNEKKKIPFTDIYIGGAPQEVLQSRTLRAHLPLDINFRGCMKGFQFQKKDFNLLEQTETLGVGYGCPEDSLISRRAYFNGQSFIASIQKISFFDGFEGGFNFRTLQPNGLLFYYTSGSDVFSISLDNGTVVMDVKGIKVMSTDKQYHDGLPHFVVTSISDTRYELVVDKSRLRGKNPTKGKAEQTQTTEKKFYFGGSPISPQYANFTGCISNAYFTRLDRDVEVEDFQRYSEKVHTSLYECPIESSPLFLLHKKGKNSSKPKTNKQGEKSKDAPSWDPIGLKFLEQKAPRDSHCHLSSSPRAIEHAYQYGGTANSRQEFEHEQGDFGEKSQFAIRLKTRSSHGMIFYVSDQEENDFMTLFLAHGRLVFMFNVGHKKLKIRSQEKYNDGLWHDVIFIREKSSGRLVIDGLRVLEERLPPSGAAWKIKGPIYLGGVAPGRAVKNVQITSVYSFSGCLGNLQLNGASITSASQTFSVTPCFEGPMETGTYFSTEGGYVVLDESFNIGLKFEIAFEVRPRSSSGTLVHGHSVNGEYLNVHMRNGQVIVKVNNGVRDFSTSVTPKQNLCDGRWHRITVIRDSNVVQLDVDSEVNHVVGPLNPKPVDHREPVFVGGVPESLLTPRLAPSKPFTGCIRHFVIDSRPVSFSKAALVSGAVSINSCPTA

[3] = target: T6, LGde2, human LAMA4 G domain with LG2 deleted, displayed on 293 cells (human, UniProt Q16363 830-1821, limits assumed); assay: flow cytometry on 293 cells displaying LAMA4 G-domain variants; % binding
T6 construct: pDisplay construct on 293 cells; vector tags and anchor not written here; also called LGde2 (LG13)
T6 sequence: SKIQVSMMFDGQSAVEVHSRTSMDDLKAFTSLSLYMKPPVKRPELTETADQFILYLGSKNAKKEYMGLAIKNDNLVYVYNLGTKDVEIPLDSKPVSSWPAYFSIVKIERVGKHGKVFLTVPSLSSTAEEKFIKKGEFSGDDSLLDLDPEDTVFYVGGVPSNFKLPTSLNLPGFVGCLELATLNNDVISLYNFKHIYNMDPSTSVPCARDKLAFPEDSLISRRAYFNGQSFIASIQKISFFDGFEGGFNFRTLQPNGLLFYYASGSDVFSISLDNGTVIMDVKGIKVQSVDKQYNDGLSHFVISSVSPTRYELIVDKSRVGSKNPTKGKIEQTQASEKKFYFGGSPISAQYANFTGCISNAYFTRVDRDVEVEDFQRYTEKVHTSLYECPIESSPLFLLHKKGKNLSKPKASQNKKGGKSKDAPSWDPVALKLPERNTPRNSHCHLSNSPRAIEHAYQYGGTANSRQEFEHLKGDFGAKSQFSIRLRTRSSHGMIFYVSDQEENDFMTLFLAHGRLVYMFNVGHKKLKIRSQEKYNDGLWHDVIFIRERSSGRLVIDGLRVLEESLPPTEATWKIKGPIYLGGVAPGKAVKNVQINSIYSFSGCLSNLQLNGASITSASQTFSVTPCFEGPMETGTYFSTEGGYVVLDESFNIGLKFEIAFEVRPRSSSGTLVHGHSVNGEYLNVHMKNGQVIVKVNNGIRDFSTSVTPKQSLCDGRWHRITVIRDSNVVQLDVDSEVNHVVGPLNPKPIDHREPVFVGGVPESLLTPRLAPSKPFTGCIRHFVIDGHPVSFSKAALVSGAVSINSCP
Description: LGde1 has a full-length G domain (i.e., LG1-5) with LG1 deleted, LGde2 has a full-length G domain with LG2 deleted, and LGde3 has a full-length G domain with LG3 deleted. Recombinant MCAM-Fc protein was able to specifically bind 293 cells expressing LAMA4 variants LG1-5, LG1-3, and LGde 1 (LG23), but not 293 cells expressing LAMA 4 variants LG4-5, LGde2 (LG13), or LGde3 (LG12).

B1: humanized 19C12 antibody H2L3 (antibody, V domains shown)
VH: QVQLQQSGAELVKPGASVKVSCKASGYAFSTYWMNWVRQAPGQGLEWIGQIYPGDGDTNYNGKFKGRVTITADKSTSTAYMELSSLRSEDTAVYFCARSDGYYDYWGQGTTVTVSS
VL: NIVLTQSPASLAVSLGERATISCRASESVDSYGTSFMHWYQQKPGQPPKLLICLASSLESGVPARFSGSGSRTDFTLTIDPVEAEDAATYYCQQNNEDPPTFGAGTKLEIKR
notes: Intact humanized IgG (human Fc); also called VHv2/VLv3; Hu19C12 H2L3
binding result [1]: binds
binding result [2]: binds
binding result (recombinant laminin 411): binds

B3: humanized 19C12 antibody H2L6 (antibody, V domains shown)
VH: B1 VH
VL: B1 VL with N1D, C53S, R72G, D80S
notes: Intact humanized IgG (human Fc); also called VHv2/VLv6
binding result [1]: binds
binding result [2]: binds
binding result (recombinant laminin 411): binds

B4: humanized 19C12 antibody H3L6 (antibody, V domains shown)
VH: B1 VH with Q1E
VL: B1 VL with N1D, C53S, R72G, D80S
notes: Intact humanized IgG (human Fc); also called VHv3/VLv6
binding result [1]: binds
binding result [2]: binds
binding result (recombinant laminin 411): binds

Now from value to binder:

binding result [1]: binds
binding result [2]: binds
binding result (recombinant laminin 411): binds
B2: humanized 19C12 antibody H2L4 (antibody, V domains shown)
VH: B1 VH
VL: B1 VL with C53S, R72G, D80S
notes: Intact humanized IgG (human Fc); also called VHv2/VLv4

Kd (human His-laminin-α4): 7.33 nM
koff (human His-laminin-α4): 0.0105 s⁻¹
kon (human His-laminin-α4): 1.43e+06 M⁻¹ s⁻¹
Kd (mouse His-laminin-α4): 5.27 nM
koff (mouse His-laminin-α4): 0.0116 s⁻¹
kon (mouse His-laminin-α4): 2.2e+06 M⁻¹ s⁻¹
binding result [3]: no binding
B5: mouse monoclonal antibody 5B5 (antibody, V domains shown)
VH: QVQLQQPGAELVKPGASVKLSCKASGYTFTSYWMHWVKQRPGRGLEWIGRIDPNSGGTKHNEKFKSKATLTVDKPSSTAYMQLSSLTSEDSAVYYCAGSPSYYDYALHYAMDYWGQGTSVTVSS
VL: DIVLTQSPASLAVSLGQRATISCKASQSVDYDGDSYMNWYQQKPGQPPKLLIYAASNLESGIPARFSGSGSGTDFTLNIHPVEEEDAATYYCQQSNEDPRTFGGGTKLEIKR
